Assay [1] addresses SNAP-GAL2R Y86^2.65A (human) (UniProt O43603).
For assay [2], the target named is T1, SNAP-GAL2R A170^ECL2S (human, UniProt O43603 1-387, A170^ECL2S, Lumi4-Tb on the SNAP tag).
T1 construct: also called A170S; source: HEK293, transfected, on cells; not shown: SNAP tag, N-terminal, kept
T1 sequence (looked up): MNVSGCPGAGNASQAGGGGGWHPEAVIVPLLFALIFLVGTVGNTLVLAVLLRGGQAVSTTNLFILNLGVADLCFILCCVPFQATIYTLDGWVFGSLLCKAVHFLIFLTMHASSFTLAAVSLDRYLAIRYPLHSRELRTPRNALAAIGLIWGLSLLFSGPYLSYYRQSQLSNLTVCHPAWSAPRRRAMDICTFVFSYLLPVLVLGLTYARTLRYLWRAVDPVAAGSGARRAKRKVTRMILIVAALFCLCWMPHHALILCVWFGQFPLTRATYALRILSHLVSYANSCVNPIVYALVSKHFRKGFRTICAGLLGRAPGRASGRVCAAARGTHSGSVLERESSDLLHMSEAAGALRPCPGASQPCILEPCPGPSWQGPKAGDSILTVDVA

Another assay has as its target T2, SNAP-GAL2R L255^6.54A (human, UniProt O43603 1-387, L255^6.54A, Lumi4-Tb on the SNAP tag).
T2 construct: also called L255A; source: HEK293, transfected, on cells; not shown: SNAP tag, N-terminal, kept
T2 sequence (looked up): T1 sequence (looked up) with S170A, L255A

For assay [3], the target named is SNAP-GAL2R I85^2.64A (human) (UniProt O43603).
The target of assay [4] is T3, SNAP-GAL2R V259^6.58A (human, UniProt O43603 1-387, V259^6.58A, Lumi4-Tb on the SNAP tag).
T3 construct: also called V259A; source: HEK293, transfected, on cells; not shown: SNAP tag, N-terminal, kept
T3 sequence (looked up): T1 sequence (looked up) with S170A, V259A

Assay [5] addresses T4, SNAP-GAL2R L172^ECL2A (human, UniProt O43603 1-387, L172^ECL2A, Lumi4-Tb on the SNAP tag).
T4 construct: also called L172A; source: HEK293, transfected, on cells; not shown: SNAP tag, N-terminal, kept
T4 sequence (looked up): T1 sequence (looked up) with S170A, L172A

Assay [6] concerns the target T5, SNAP-GAL2R L169^ECL2A (human, UniProt O43603 1-387, L169^ECL2A, Lumi4-Tb on the SNAP tag).
T5 construct: also called L169A; source: HEK293, transfected, on cells; not shown: SNAP tag, N-terminal, kept
T5 sequence (looked up): T1 sequence (looked up) with L169A, S170A

Assay [7] has as its target SNAP-GAL2R L266^ECL3A (human) (UniProt O43603).
In assay [8] the target is SNAP-GAL2R Y271^7.32A (human) (UniProt O43603).
The next assay concerns the target T6, SNAP-GAL2R T267^7.28A (human, UniProt O43603 1-387, T267^7.28A, Lumi4-Tb on the SNAP tag).
T6 construct: also called T267A; source: HEK293, transfected, on cells; not shown: SNAP tag, N-terminal, kept
T6 sequence (looked up): T1 sequence (looked up) with S170A, T267A

Assay [9] has as its target SNAP-GAL2R Q82^2.61A (human) (UniProt O43603).
For the next assay, the target named is T7, SNAP-GAL2R R184^5.35A (human, UniProt O43603 1-387, R184^5.35A, Lumi4-Tb on the SNAP tag).
T7 construct: also called R184A; source: HEK293, transfected, on cells; not shown: SNAP tag, N-terminal, kept
T7 sequence (looked up): T1 sequence (looked up) with S170A, R184A

The target in assay [10] is SNAP-GAL2R F264^ECL3A (human) (UniProt O43603).
In the next assay the target is T8, SNAP-GAL2R I256^6.55A (human, UniProt O43603 1-387, I256^6.55A, Lumi4-Tb on the SNAP tag).
T8 construct: also called I256A; source: HEK293, transfected, on cells; not shown: SNAP tag, N-terminal, kept
T8 sequence (looked up): T1 sequence (looked up) with S170A, I256A

Assay [11] deals with T1, SNAP-GAL2R A170^ECL2S. The source holds these as a separate data set.
Assay [12] addresses T3, SNAP-GAL2R V259^6.58A. This is another data set of the same source.
Assay [13] has as its target T4, SNAP-GAL2R L172^ECL2A. The source holds these as a separate data set.
In assay [14] the target is T5, SNAP-GAL2R L169^ECL2A. The source holds these as a separate data set.
Assay [15] addresses SNAP-GAL2R L266^ECL3A (human) (UniProt O43603). The source holds these as a separate data set.
Assay [16] has as its target SNAP-GAL2R Y271^7.32A (human) (UniProt O43603). The source holds these as a separate data set.
Assay [17] has as its target SNAP-GAL2R F264^ECL3A (human) (UniProt O43603). The source holds these as a separate data set.

Numbering of substitutions follows the chain as printed. Where “and” joins values, the source holds several entries; their conditions need not be identical. Equal entries are not always repeated.

As to “galanin (full length, unlabeled) (peptide)”, the calcium assay EC50 (galanin; HEK293/Gα16 cells) is 3230 nM and 2210 nM in assay [1]; 10 nM and 8.08 nM and 12.4 nM with SNAP-GAL2R A170^ECL2S [2]; 153 nM and 293 nM in the assay with SNAP-GAL2R L255^6.54A; 5200 nM and 4440 nM and 1380 nM in [3]; 290 nM and 275 nM and 205 nM with SNAP-GAL2R V259^6.58A [4]; 59 nM and 71.7 nM and 55.4 nM with SNAP-GAL2R L172^ECL2A [5]. The calcium assay EC50 (galanin; HEK293/Gα16 cells) was 93.5 nM and 82.5 nM and 22.5 nM in the assay with SNAP-GAL2R L169^ECL2A [6]; 27900 nM and 7140 nM in assay [7]; 515 nM and 678 nM and 969 nM in [8]; 3150 nM and 2330 nM and 1260 nM with SNAP-GAL2R T267^7.28A; 4680 nM and 4340 nM and 2980 nM in [9]; 138 nM and 115 nM and 58 nM with SNAP-GAL2R R184^5.35A. The calcium assay EC50 (galanin; HEK293/Gα16 cells) in [10] is 1760 nM and 2390 nM and 3590 nM.
“spexin (mature, 14 amino acids) (peptide)”: the calcium assay EC50 (spexin) with SNAP-GAL2R I256^6.55A was 674 nM and 438 nM and 924 nM; with SNAP-GAL2R A170^ECL2S [11] it was 95.4 nM and 151 nM (2×); with SNAP-GAL2R V259^6.58A [12], 1330 nM and 6620 nM and 6150 nM; with SNAP-GAL2R L172^ECL2A [13], 3120 nM and 10800 nM and 12100 nM; with SNAP-GAL2R L169^ECL2A [14] it was 7170 nM and 5140 nM and 1830 nM; in assay [15] it was 25100 nM and 15300 nM and 12000 nM. Also, the calcium assay EC50 (spexin) was 5960 nM and 1580 nM and 752 nM in assay [16]; more than 100000 nM in [17].

Source of the values: PMC8924211 (Nature Communications, 2022).
